Results from PMC8809517, “Cofactor-independent RNA editing by a synthetic S-type PPR protein”.
Changes are numbered by the printed parent chain.

T1: GFP-9S library array, motif 4 ND N98P;D124C (synthetic construct, N98P;D124C)
T1 chain: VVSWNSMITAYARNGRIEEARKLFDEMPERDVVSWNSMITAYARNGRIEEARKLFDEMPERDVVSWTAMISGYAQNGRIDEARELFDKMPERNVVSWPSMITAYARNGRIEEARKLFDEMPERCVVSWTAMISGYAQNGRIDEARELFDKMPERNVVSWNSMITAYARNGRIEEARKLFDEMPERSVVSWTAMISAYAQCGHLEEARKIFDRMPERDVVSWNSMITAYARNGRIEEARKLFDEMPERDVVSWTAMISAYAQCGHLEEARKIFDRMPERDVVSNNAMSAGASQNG

T2: GFP-9S library array, motif 4 ND N98F;D124N (synthetic construct, N98F;D124N)
T2 chain: T1 chain with P98F, C124N

T3: GFP-9S library array, motif 4 ND N98P;D124V (synthetic construct, N98P;D124V)
T3 chain: T1 chain with C124V

T4: GFP-9S library array, motif 4 ND N98L;D124W (synthetic construct, N98L;D124W)
T4 chain: T1 chain with P98L, C124W

T5: GFP-9S library array, motif 4 ND D124W (synthetic construct, D124W)
T5 chain: T1 chain with P98N, C124W


What was measured:
Experiment in all cases: high-throughput RNA pulldown from lysate on Ni-NTA beads; HRP: 50 mM Tris pH 8, 150 mM NaCl, 1 mM beta-mercaptoethanol, 50 ug/ml BSA, 3 ug/ml yeast RNA, 0.5% heparin; ITC and FP: Tris pH 8, 200 mM KCl, 5% glycerol; MST: 50 mM Tris pH 8, 200 mM NaCl, 1 mM DTT, BSA, heparin, 0.05% Tween 20
Settings in all cases: tags: N-terminal His-eGFP
[1] = target: T1, GFP-9S library array, motif 4 ND …
[2] = target: T2, GFP-9S library array, motif 4 ND …
[3] = target: T3, GFP-9S library array, motif 4 ND …
[4] = target: T4, GFP-9S library array, motif 4 ND …
[5] = target: T5, GFP-9S library array, motif 4 ND D124W

| Binder | Kd ([1]; label: 5' Cy5) | Kd ([2]; label: 5' Cy5) | Kd ([3]; label: 5' Cy5) | Kd ([4]; label: 5' Cy5) | Kd ([5]; label: 5' Cy5) | Kd ([1]; label: 5' IRDye 800CW) | Kd ([2]; label: 5' IRDye 800CW) | Kd ([3]; label: 5' IRDye 800CW) | Kd ([4]; label: 5' IRDye 800CW) | Kd ([5]; label: 5' IRDye 800CW) |
| --- | --- | --- | --- | --- | --- | --- | --- | --- | --- | --- |
| AUUAGACGUGA (ssRNA) [Cy5-rpoA-G] | 297 nM | 101 nM | 150 nM | 99.9 nM | 89.4 nM | – | – | – | – | – |
| AUUAAACGUGA (ssRNA) [IR-rpoA-A] | – | – | – | – | – | 660 nM | 196 nM | 407 nM | 247 nM | 164 nM |
| AUUAUACGUGA (ssRNA) [IR-rpoA-U] | – | – | – | – | – | 874 nM | 112 nM | 291 nM | 248 nM | 210 nM |
| AUUACACGUGA (ssRNA) [Cy5-rpoA] | 332 nM | 81.4 nM | 121 nM | 111 nM | 78.7 nM | – | – | – | – | – |
